Experiment: protease stability score; higher = more stable; yeast display proteolysis, trypsin and chymotrypsin;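 note: log10 excess protease needed over predicted unfolded state with 0 meaning unfolded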

Row | Sequence | protease stability score
1 | DSENVKVVREFIKAVERNDHQKLRDLVDPNATAQIGDKEYTGMDDIVTRIIETIRQLRFKIKLHHVDNHNGVVNVKAVFTFEHNGKPDKREVDIRVEITNGKVTNFQYQEHK | 2.08
2 | DDRERAERYLRQVENALHTNDPRQLKNQADKDVKIEIGETDLHGTKDFVKMMKEIINRADHARFTVRSVRRHGDKMRVEFTAEVNHNGRRRTHTIRITLQLENGDVVLQSLRVE | 0.302
3 | DDEDRKKADEMLKALKHGDPDRVRELMDPNAKAVYGDKRIRGRDDFVEDMFRKQREIKIDMKIEEFRVNGNHAVFTVDVIEDKDGRPKRFKARVVITLHNGKIIDIKVEEEH | 1.25
4 | DEEQAKTIMEKWQKAVQTNNDELADKLYKPNVEWENGDEQRQGKEVVVKMLQKAQKKGVEFQVRKAKVEGDRVEMVYDVRIGDQTVTFTVRMDVHGGRVERVKAEASDEVKKALKKG | 0.444
5 | DERFRRLVHSFIQALHTNNPEEIKELFDPNARMTIGDKQVHGQEDISRLIDRERKEMRLEIKTFSVEDKGDTADVKMKAVWDVNGKPNRHSYDLNFVDHNGKIRSLHARMDSQYLREVKS | -0.074
6 | DEEEEARKFVKTAQDKARQGNEDQLQNMADKDARVEVGDKVIHGRNEAVKTRREENKRYDRVHNDVQHITLRPGQITIRMRVHVEHNGQRRHREFVFVMHNNNGEWHVEFVEVK | -0.045
7 | DEEELKHINRELVEVAKTGNPDEWRKLMRKDVTMHVGDKTYHGREKVREHAKTLRDRIDHINVRSVSATGDKVVLNFEAKVNGQTRTYQFQARVHNGRIVSAHINER | 0.006
8 | DEEANKNMKDMWRTGDWKQIAENADEDAHYQVGDKKFSGREQVQTFIELLQNRVDDQNIRDMEDKGNEIDIEFTVVINGRKLVLHATVQAHNGRVKSWTVKVTDRDDKRKLDEALR | 0.307
9 | DERTLEQLLQDFINNMQTGDHQSLKDLLDENARVNIGDKTLSGRERVTTALKRLMRRVDHIQVDHYEVTNGEMNIDMQLEVNGVRVKVEVIIEVHNGKAKFIEFRVRNEEQWERVEG | 1.84
10 | DTEDDHEFARKYVEVLESGDPKQWREMFDEDAKMRIGEKTFRGRDQIATWYERYRRQADHVEVKHVETRGEQFQFDFQVHVNGKHARYTLNIRVHNGKLVEVKFDPDQKKTMDK | 1.75
11 | DEEKNTRLIKEFMEALRTGDEHQVRRLMDPNAKVVYGDTRFHGREEAAKFIVEWASRIDHIDVKDMRVNGNRASLTFVANFDGRNHDVKIDFTLQDGKFRQVNFTSN | 1.09
12 | DEDQARLAIRFMEAWLEGNEDELKNQADPNAHFQVGDKHVTGMDEAAKELKTQLTEIRWDYKSVRIDTEEGRANLDMTVRMEVNGKPVEHSQKIEVERHNGQLSVIDQQFDNDTWDEVKS | -0.393
13 | DKDDQKRFTDTATKILQHNNPEKMRELADKDARLVVGDRTYTGRRQIVRHMEHLFRRVDHVQIKHVDVRGDHVEIDAVLDYNGRKERMTFVFQAHNGRIKQVEVQTG | 0.603
14 | DDDAVRQVHTFWRILERGNSDRATEMLDENARVEVGDRSLHGREKIVTQQYRLYTQARIEVERYSAQDHGNKVHAFVLVVVHVNGTPHRFTVDVNFVFQNGRFKSIHLQVSEEQLRQEER | 0.604
15 | DEENADVIRRFLDAIHTGNPDDARKNADPNAQYKIGDKTYSGMERWVKTLQDQKRHQEIDIKIKHISVKGDKITVEFVVVVNINGRPVSFSAILSAEVKNGKIKHLQYHISEEQKRKVEG | 0.222
16 | DDDTTAKKAIDDFIENFEHGDPKEADKQADENVRVEYGDKEVDGRHQMAHWLVKLVERVDHVRWHIHEVRMDNGKINVIFENKQKFDGRTEDREFHMTADTRDGRIQLTSVHEK | 0.491
17 | DDEKAKEMMKVWKSGDEEDLVRLADENVSVVVGDHRVRGREEFKKWLHRLSEQVDRWKVDSVHAHNGRIQIDAVYVVNGQEFRLTIHVTMRNGRIKTVRAQVTTEDDERKLKKVVS | 0.63
18 | DEEQNRRIDDMWRAEENGDENRMKELADPNVELQIGDKQVHGMDEYVKEAKKRRDKSEISIEIKQVEVHNGSVHVDFVFTENENGTPDSKRVHVNARFDNGKLKSMSQNDTE | 1.1
19 | DEKEEARELMERLREIIETGNEREAKKLADKDARNNVGDKVLHGREEIVRQLITLYKTADHVDLKFRDYRVDNGKFTMDMKVRFHHNGNTIERRYQMSFDTHNGRLTATRYRNS | 1.06
20 | DTEVIHVLKRIMHAINEGDESQVRKNADPNVKVRVGNKSIHGREQLVEQMRRDVEEIRLEYKSFDAKDSDGHARARVKYQNEFNGKPQEKDDRATAVAHNGHLKSIRWRVPEDDLRDQDT | -0.014
21 | DERDLHRQAEDVATAWQTGDSHQFEKLASENVRYVIGDKSYKGKEQVKDMLTEIDKQADHRRVSSMTVHGNKIVVVITVHYNGRTRRLNVVFDVHNGRVRQVDLSIG | 0.701
22 | DQRERVKKLFDRFQHNIKHGDKSKATNQFPPDVTMSIGDEDLHGRDAAKRYADNVANNADRFHHEIQDYKQKGNNANLRVKIVLNHNGTNHSHEADWVAVVHNGQARLKEVKFD | -0.078
23 | DDHDAKRAAKHVENGDPEQITNLFDEDARVHIGDFRIHGREDAKKWADHYRDQVDHLEYEDYRISGDTVVIVFQINVNGKRVRLRLEFRVHNGRIKEMTVEFTSEDDEKRVLKIMS | 0.531
24 | DEEELKTIIRDMQSNDEERLANLFDEDAKVDVGDDVLHGREDVTKFFRKVNKRIDHFEIKTYDVRGEEVEVTVEAVVNGQRIKFVWVLTIKNGKAKSAKLSVTDKKQKRILEKNMD | 1.12
25 | DDENRRRAETWFRNIQDNNPELIRHMFDEDARLEVGDKEIQGREHFEEQMKRDVEEMRLDLKVKSVEVRGNDVTVKAEAQDDRNGHPRNFTFRIRIRYHNGRVKHVHMDRQG | 0.092

Reference: the NTF2 design screens of Basanta et al. (2020)
